{"source": "patent US20130209454A1", "about": "(CALIFORNIA INSTITUTE OF TECHNOLOGY, published 2013)", "binders": {"B1": {"name": "NIH45-46 IgG (antibody, V domains shown)", "VH": "QVRLSQSGGQMKKPGESMRLSCRASGYEFLNCPINWIRLAPGRRPEWMGWLKPRGGAVNYARKFQGRVTMTRDVYSDTAFLELRSLTSDDTAVYFCTRGKYCTARDYYNWDFEHWGRGAPVTVSS", "VL": "EIVLTQSPATLSLSPGETAIISCRTSQSGSLAWYQQRPGQAPRLVIYSGSTRAAGIPDRFSGSRWGADYNLSISNLESGDFGVYYCQQYEFFGQGTKVQVDI"}}, "assay_in_all_cases": "cell-based or functional assay", "key": {"[1]": {"target": "HIV-1 strain ZM135M.PL10a envelope (gp120) (HIV-1)"}, "[2]": {"target": "HIV-1 strain CAAN5342.A2 envelope (gp120) (HIV-1)"}, "[3]": {"target": "HIV-1 strain X1193_c1 envelope (gp120) (HIV-1)"}, "[4]": {"target": "HIV-1 strain Ce1176_A3 envelope (gp120) (HIV-1)"}, "[5]": {"target": "HIV-1 strain Q842.d12 envelope (gp120) (HIV-1)"}, "[6]": {"target": "HIV-1 strain 0330.v4.c3 envelope (gp120) (HIV-1)"}, "[7]": {"target": "HIV-1 strain P0402_c2_11 envelope (gp120) (HIV-1)"}, "[8]": {"target": "HIV-1 strain Q23.17 envelope (gp120) (HIV-1)"}, "[9]": {"target": "HIV-1 strain 211-9 envelope (gp120) (HIV-1)"}, "[10]": {"target": "HIV-1 strain Du156.12 envelope (gp120) (HIV-1)"}, "[11]": {"target": "HIV-1 strain CNE20 envelope (gp120) (HIV-1)"}, "[12]": {"target": "HIV-1 strain ZM249M.PL1 envelope (gp120) (HIV-1)"}, "[13]": {"target": "HIV-1 strain 6545.v4.c1 envelope (gp120) (HIV-1)"}, "[14]": {"target": "HIV-1 strain R1166.c01 envelope (gp120) (HIV-1)"}, "[15]": {"target": "HIV-1 strain 928-28 envelope (gp120) (HIV-1)"}, "[16]": {"target": "HIV-1 strain Ce0393_C3 envelope (gp120) (HIV-1)"}, "[17]": {"target": "HIV-1 strain ZM109F.PB4 envelope (gp120) (HIV-1)"}, "[18]": {"target": "HIV-1 strain WITO4160.33 envelope (gp120) (HIV-1)"}, "[19]": {"target": "HIV-1 strain CNE58 envelope (gp120) (HIV-1)"}, "[20]": {"target": "HIV-1 strain T278-50 envelope (gp120) (HIV-1)"}, "[21]": {"target": "HIV-1 strain RHPA4259.7 envelope (gp120) (HIV-1)"}, "[22]": {"target": "HIV-1 strain 231965.c01 envelope (gp120) (HIV-1)"}, "[23]": {"target": "HIV-1 strain C2101.c01 envelope (gp120) (HIV-1)"}, "[24]": {"target": "HIV-1 strain T251-18 envelope (gp120) (HIV-1)"}, "[25]": {"target": "HIV-1 strain 6811.v7.c18 envelope (gp120) (HIV-1)"}, "[26]": {"target": "HIV-1 strain 6535.3 envelope (gp120) (HIV-1)"}, "[27]": {"target": "HIV-1 strain PVO.4 envelope (gp120) (HIV-1)"}, "[28]": {"target": "HIV-1 strain CNE21 envelope (gp120) (HIV-1)"}, "[29]": {"target": "HIV-1 strain 3718.v3.c11 envelope (gp120) (HIV-1)"}, "[30]": {"target": "HIV-1 strain ZM233M.PB6 envelope (gp120) (HIV-1)"}, "[31]": {"target": "HIV-1 strain Ce0682_E4 envelope (gp120) (HIV-1)"}, "[32]": {"target": "HIV-1 strain 62357_14_D3_4589 envelope (gp120) (HIV-1)"}, "[33]": {"target": "HIV-1 strain 703357.C02 envelope (gp120) (HIV-1)"}, "[34]": {"target": "HIV-1 strain HIV-16845-2.22 envelope (gp120) (HIV-1)"}, "[35]": {"target": "HIV-1 strain CAP210.2.00.E8 envelope (gp120) (HIV-1)"}, "[36]": {"target": "HIV-1 strain TRO.11 envelope (gp120) (HIV-1)"}, "[37]": {"target": "HIV-1 strain Q259.d2.17 envelope (gp120) (HIV-1)"}, "[38]": {"target": "HIV-1 strain Du172.17 envelope (gp120) (HIV-1)"}, "[39]": {"target": "HIV-1 strain T250-4 envelope (gp120) (HIV-1)"}, "[40]": {"target": "HIV-1 strain ZM214M.PL15 envelope (gp120) (HIV-1)"}, "[41]": {"target": "HIV-1 strain WEAU_d15_410_787 envelope (gp120) (HIV-1)"}, "[42]": {"target": "HIV-1 strain 6540.v4.c1 envelope (gp120) (HIV-1)"}}, "data": [{"binder": "B1", "values": [{"measurement": "neutralization IC80", "setting": "[1]", "result": 2.79, "unit": "mg/L"}, {"measurement": "neutralization IC80", "setting": "[2]", "result": 0.4, "unit": "mg/L"}, {"measurement": "neutralization IC80", "setting": "[3]", "result": 0.064, "unit": "mg/L"}, {"measurement": "neutralization IC80", "setting": "[4]", "result": 3.17, "unit": "mg/L"}, {"measurement": "neutralization IC80", "setting": "[5]", "result": 0.073, "unit": "mg/L"}, {"measurement": "neutralization IC80", "setting": "[6]", "result": 0.3, "unit": "mg/L"}, {"measurement": "neutralization IC80", "setting": "[7]", "result": 0.214, "unit": "mg/L"}, {"measurement": "neutralization IC80", "setting": "[8]", "result": 0.5, "unit": "mg/L"}, {"measurement": "neutralization IC80", "setting": "[9]", "result": "> 50", "unit": "mg/L"}, {"measurement": "neutralization IC80", "setting": "[10]", "result": 0.054, "unit": "mg/L"}, {"measurement": "neutralization IC80", "setting": "[11]", "result": "> 50", "unit": "mg/L"}, {"measurement": "neutralization IC80", "setting": "[12]", "result": 0.053, "unit": "mg/L"}, {"measurement": "neutralization IC80", "setting": "[13]", "result": "> 50", "unit": "mg/L"}, {"measurement": "neutralization IC80", "setting": "[14]", "result": 1.21, "unit": "mg/L"}, {"measurement": "neutralization IC80", "setting": "[15]", "result": 0.64, "unit": "mg/L"}, {"measurement": "neutralization IC80", "setting": "[16]", "result": 0.93, "unit": "mg/L"}, {"measurement": "neutralization IC80", "setting": "[17]", "result": 0.437, "unit": "mg/L"}, {"measurement": "neutralization IC80", "setting": "[18]", "result": 0.26, "unit": "mg/L"}, {"measurement": "neutralization IC80", "setting": "[19]", "result": 2.08, "unit": "mg/L"}, {"measurement": "neutralization IC80", "setting": "[20]", "result": "> 50", "unit": "mg/L"}, {"measurement": "neutralization IC80", "setting": "[21]", "result": 0.047, "unit": "mg/L"}, {"measurement": "neutralization IC80", "setting": "[22]", "result": 0.126, "unit": "mg/L"}, {"measurement": "neutralization IC80", "setting": "[23]", "result": 31.4, "unit": "mg/L"}, {"measurement": "neutralization IC80", "setting": "[24]", "result": 3.68, "unit": "mg/L"}, {"measurement": "neutralization IC80", "setting": "[25]", "result": 0.113, "unit": "mg/L"}, {"measurement": "neutralization IC80", "setting": "[26]", "result": 0.54, "unit": "mg/L"}, {"measurement": "neutralization IC80", "setting": "[27]", "result": 0.41, "unit": "mg/L"}, {"measurement": "neutralization IC80", "setting": "[28]", "result": 38.1, "unit": "mg/L"}, {"measurement": "neutralization IC80", "setting": "[29]", "result": "> 50", "unit": "mg/L"}, {"measurement": "neutralization IC80", "setting": "[30]", "result": 14.2, "unit": "mg/L"}, {"measurement": "neutralization IC80", "setting": "[31]", "result": 0.155, "unit": "mg/L"}, {"measurement": "neutralization IC80", "setting": "[32]", "result": 0.19, "unit": "mg/L"}, {"measurement": "neutralization IC80", "setting": "[33]", "result": "> 50", "unit": "mg/L"}, {"measurement": "neutralization IC80", "setting": "[34]", "result": 22.6, "unit": "mg/L"}, {"measurement": "neutralization IC80", "setting": "[35]", "result": "> 50", "unit": "mg/L"}, {"measurement": "neutralization IC80", "setting": "[36]", "result": 7.49, "unit": "mg/L"}, {"measurement": "neutralization IC80", "setting": "[37]", "result": 0.154, "unit": "mg/L"}, {"measurement": "neutralization IC80", "setting": "[38]", "result": "> 50", "unit": "mg/L"}, {"measurement": "neutralization IC80", "setting": "[39]", "result": "> 50", "unit": "mg/L"}, {"measurement": "neutralization IC80", "setting": "[40]", "result": 0.59, "unit": "mg/L"}, {"measurement": "neutralization IC80", "setting": "[41]", "result": 0.015, "unit": "mg/L"}, {"measurement": "neutralization IC80", "setting": "[42]", "result": "> 50", "unit": "mg/L"}]}]}
